Measurements published in the supplement of paper PMC7125110.
This sample holds only a part of the variants without activity.

B1: glmS ribozyme (parent)
chain: AUAAAAGCGCCAGAACUACAGAAAUGUAGUUGACGAGGAGGAGGUUUAUCGAAUUUUCGGCGGAUGCCUCCAAA

Columns and labels:
Conditions in all cases: with glucosamine-6-phosphate
glucosamine-6-phosphate [1] = variants of: B1; assay: self-cleavage kobs at 40 uM GlcN6P; higher = faster cleavage; RNA array
Procedure, shortened: (§1)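 Glucosamine-6-phosphate (40 μM to 10 mM) in HEPES/KCl/Mg(OAc)2 buffer was flowed over sequenced MiSeq chips, and tiles were imaged over ~14 h. Barcoded ribozyme variants there had been transcribed in situ by E. coli RNA polymerase and were tracked through a hybridised Cy3 probe at 37 °C. One- or two-exponential decay fits to per-tile medians, normalised to baseline and to non-cleaving reference variants, gave kobs. kcat and KM came from weighted Michaelis–Menten fits across concentrations.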

glucosamine-6-phosphate [2] = variants of: B1; assay: self-cleavage kobs at 640 uM GlcN6P; higher = faster cleavage; RNA array
Procedure, shortened: as §1

glucosamine-6-phosphate [3] = variants of: B1; assay: self-cleavage kobs at 10000 uM GlcN6P; higher = faster cleavage; RNA array
Procedure, shortened: as §1

glucosamine-6-phosphate [4] = variants of: B1; assay: self-cleavage kobs at 160 uM GlcN6P; higher = faster cleavage; RNA array
Procedure, shortened: as §1

glucosamine-6-phosphate [5] = variants of: B1; assay: self-cleavage kobs at 2500 uM GlcN6P; higher = faster cleavage; RNA array
Procedure, shortened: as §1

AUAAAAGCGCCAGAACUACAGAAAUGUAGUUGACGAGGAGGAGGUUUAUCGAAUUUUCGGCCGGUGCCUCCAAA
< 1e-05 s⁻¹: self-cleavage kobs at 40 uM GlcN6P (glucosamine-6-phosphate [1]) | self-cleavage kobs at 640 uM GlcN6P (glucosamine-6-phosphate [2]) | self-cleavage kobs at 10000 uM GlcN6P (glucosamine-6-phosphate [3])

AUAAAAGCGCCAGAACUACAGAAAUGUAGUUGACGAGGAGGAGGUUUAUCGAAUUUUCGACGGAUGCCUCUAAA
< 1e-05 s⁻¹: self-cleavage kobs at 40 uM GlcN6P (glucosamine-6-phosphate [1]) | self-cleavage kobs at 640 uM GlcN6P (glucosamine-6-phosphate [2])

AUAAAAGCGCCAGAACUACAGAAAUGUAGUUGACGAGGAGGAGGUUUAUCGAAUUUUCGCCGGGUGCCUCCAAA
< 1e-05 s⁻¹: self-cleavage kobs at 40 uM GlcN6P (glucosamine-6-phosphate [1]) | self-cleavage kobs at 160 uM GlcN6P (glucosamine-6-phosphate [4]) | self-cleavage kobs at 640 uM GlcN6P (glucosamine-6-phosphate [2]) | self-cleavage kobs at 2500 uM GlcN6P (glucosamine-6-phosphate [5]) | self-cleavage kobs at 10000 uM GlcN6P (glucosamine-6-phosphate [3])

AUAAAAGCGCCAGAACUACAGAAAUGUAGUUGACGAGGAGGAGGUUUAUCGAAUUUUCGCCGGUUGCCUCCAAA
< 1e-05 s⁻¹: self-cleavage kobs at 40 uM GlcN6P (glucosamine-6-phosphate [1]) | self-cleavage kobs at 160 uM GlcN6P (glucosamine-6-phosphate [4]) | self-cleavage kobs at 640 uM GlcN6P (glucosamine-6-phosphate [2]) | self-cleavage kobs at 2500 uM GlcN6P (glucosamine-6-phosphate [5]) | self-cleavage kobs at 10000 uM GlcN6P (glucosamine-6-phosphate [3])

AUAAAAGCGCCAGAACUACAGAAAUGUAGUUGACGAGGAGGAGGUUUAUCGAAUUUUCGUCGGAUGGCUCCAAA
< 1e-05 s⁻¹: self-cleavage kobs at 40 uM GlcN6P (glucosamine-6-phosphate [1]) | self-cleavage kobs at 160 uM GlcN6P (glucosamine-6-phosphate [4]) | self-cleavage kobs at 640 uM GlcN6P (glucosamine-6-phosphate [2]) | self-cleavage kobs at 2500 uM GlcN6P (glucosamine-6-phosphate [5]) | self-cleavage kobs at 10000 uM GlcN6P (glucosamine-6-phosphate [3])

AUAAAAGCGCCAGAACUACAGAAAUGUAGUUGACGAGGAGGAGGUUUAUCGAAUUUUCGGGGGGUGCCUCCAAA
< 1e-05 s⁻¹: self-cleavage kobs at 40 uM GlcN6P (glucosamine-6-phosphate [1]) | self-cleavage kobs at 640 uM GlcN6P (glucosamine-6-phosphate [2]) | self-cleavage kobs at 2500 uM GlcN6P (glucosamine-6-phosphate [5]) | self-cleavage kobs at 10000 uM GlcN6P (glucosamine-6-phosphate [3])

AUAAAAGCGCCAGAACUACAGAAAUGUAGUUGACGAGGAGGAGGUUUAUCGAAUUUUCGGAGGAUCCCUCCAAA
< 1e-05 s⁻¹: self-cleavage kobs at 40 uM GlcN6P (glucosamine-6-phosphate [1]) | self-cleavage kobs at 2500 uM GlcN6P (glucosamine-6-phosphate [5]) | self-cleavage kobs at 10000 uM GlcN6P (glucosamine-6-phosphate [3])

AUAAAAGCGCCAGAACUACAGAAAUGUAGUUGACGAGGAGGAGGUUUAUCGAAUUUUCGGUGGCUGCCUCCAAA
< 1e-05 s⁻¹: self-cleavage kobs at 40 uM GlcN6P (glucosamine-6-phosphate [1]) | self-cleavage kobs at 2500 uM GlcN6P (glucosamine-6-phosphate [5]) | self-cleavage kobs at 10000 uM GlcN6P (glucosamine-6-phosphate [3])

AUAAAAGCGCCAGAACUACAGAAAUGUAGUUGACGAGGAGGAGGUUUAUCGAAUUUUCGGGGGAUGCCUUCAAA
< 1e-05 s⁻¹: self-cleavage kobs at 40 uM GlcN6P (glucosamine-6-phosphate [1]) | self-cleavage kobs at 10000 uM GlcN6P (glucosamine-6-phosphate [3])

AUAAAAGCGCCAGAACUACAGAAAUGUAGUUGACGAGGAGGAGGUUUAUCGAAUUUUCGUCGGAUGCCGCCAAA
< 1e-05 s⁻¹: self-cleavage kobs at 40 uM GlcN6P (glucosamine-6-phosphate [1]) | self-cleavage kobs at 640 uM GlcN6P (glucosamine-6-phosphate [2]) | self-cleavage kobs at 10000 uM GlcN6P (glucosamine-6-phosphate [3])

AUAAAAGCGCCAGAACUACAGAAAUGUAGUUGACGAGGAGGAGGUUUAUCGAAUUUUCGCCGGAUGACUCUAAA
< 1e-05 s⁻¹: self-cleavage kobs at 40 uM GlcN6P (glucosamine-6-phosphate [1])

AUAAAAGCGCCAGAACUACAGAAAUGUAGUUGACGAGGAGGAGGUUUAUCGAAUUUUCGGUGGAUGCCUCAAAA
< 1e-05 s⁻¹: self-cleavage kobs at 40 uM GlcN6P (glucosamine-6-phosphate [1]) | self-cleavage kobs at 160 uM GlcN6P (glucosamine-6-phosphate [4]) | self-cleavage kobs at 640 uM GlcN6P (glucosamine-6-phosphate [2]) | self-cleavage kobs at 2500 uM GlcN6P (glucosamine-6-phosphate [5])

AUAAAAGCGCCAGAACUACAGAAAUGUAGUUGACGAGGAGGAGGUUUAUCGAAUUUUCGUCGGAUGCGUCCAAA
< 1e-05 s⁻¹: self-cleavage kobs at 40 uM GlcN6P (glucosamine-6-phosphate [1]) | self-cleavage kobs at 160 uM GlcN6P (glucosamine-6-phosphate [4]) | self-cleavage kobs at 640 uM GlcN6P (glucosamine-6-phosphate [2]) | self-cleavage kobs at 2500 uM GlcN6P (glucosamine-6-phosphate [5]) | self-cleavage kobs at 10000 uM GlcN6P (glucosamine-6-phosphate [3])

AUAAAAGCGCCAGAACUACAGAAAUGUAGUUGACGAGGAGGAGGUUUAUCGAAUUUUCGUCGGAUGCCUACAAA
< 1e-05 s⁻¹: self-cleavage kobs at 40 uM GlcN6P (glucosamine-6-phosphate [1]) | self-cleavage kobs at 160 uM GlcN6P (glucosamine-6-phosphate [4]) | self-cleavage kobs at 640 uM GlcN6P (glucosamine-6-phosphate [2]) | self-cleavage kobs at 10000 uM GlcN6P (glucosamine-6-phosphate [3])

AUAAAAGCGCCAGAACUACAGAAAUGUAGUUGACGAGGAGGAGGUUUAUCGAAUUUUCGGGGAAUGCCUCCAAA
< 1e-05 s⁻¹: self-cleavage kobs at 40 uM GlcN6P (glucosamine-6-phosphate [1]) | self-cleavage kobs at 160 uM GlcN6P (glucosamine-6-phosphate [4]) | self-cleavage kobs at 10000 uM GlcN6P (glucosamine-6-phosphate [3])

AUAAAAGCGCCAGAACUACAGAAAUGUAGUUGACGAGGAGGAGGUUUAUCGAAUUUUCGACUGAUGCCUCCAAA
< 1e-05 s⁻¹: self-cleavage kobs at 40 uM GlcN6P (glucosamine-6-phosphate [1]) | self-cleavage kobs at 160 uM GlcN6P (glucosamine-6-phosphate [4]) | self-cleavage kobs at 640 uM GlcN6P (glucosamine-6-phosphate [2]) | self-cleavage kobs at 2500 uM GlcN6P (glucosamine-6-phosphate [5])

AUAAAAGCGCCAGAACUACAGAAAUGUAGUUGACGAGGAGGAGGUUUAUCGAAUUUUCGGCCGACGCCUCCAAA
< 1e-05 s⁻¹: self-cleavage kobs at 40 uM GlcN6P (glucosamine-6-phosphate [1]) | self-cleavage kobs at 160 uM GlcN6P (glucosamine-6-phosphate [4]) | self-cleavage kobs at 640 uM GlcN6P (glucosamine-6-phosphate [2]) | self-cleavage kobs at 2500 uM GlcN6P (glucosamine-6-phosphate [5])

AUAAAAGCGCCAGAACUACAGAAAUGUAGUUGACGAGGAGGAGGUUUAUCGAAUUUUCGGCAGAUGACUCCAAA
< 1e-05 s⁻¹: self-cleavage kobs at 40 uM GlcN6P (glucosamine-6-phosphate [1]) | self-cleavage kobs at 10000 uM GlcN6P (glucosamine-6-phosphate [3])

AUAAAAGCGCCAGAACUACAGAAAUGUAGUUGACGAGGAGGAGGUUUAUCGAAUUUUCGGCAGUUGCCUCCAAA
< 1e-05 s⁻¹: self-cleavage kobs at 40 uM GlcN6P (glucosamine-6-phosphate [1]) | self-cleavage kobs at 640 uM GlcN6P (glucosamine-6-phosphate [2]) | self-cleavage kobs at 10000 uM GlcN6P (glucosamine-6-phosphate [3])

AUAAAAGCGCCAGAACUACAGAAAUGUAGUUGACGAGGAGGAGGUUUAUCGAAUUUUCGGCAGGUGCCUCCAAA
< 1e-05 s⁻¹: self-cleavage kobs at 40 uM GlcN6P (glucosamine-6-phosphate [1])

AUAAAAGCGCCAGAACUACAGAAAUGUAGUUGACGAGGAGGAGGUUUAUCGAAUUUUCGCCGGAUGACUCCAAA
< 1e-05 s⁻¹: self-cleavage kobs at 40 uM GlcN6P (glucosamine-6-phosphate [1]) | self-cleavage kobs at 2500 uM GlcN6P (glucosamine-6-phosphate [5])

AUAAAAGCGCCAGAACUACAGAAAUGUAGUUGACGAGGAGGAGGUUUAUCGAAUUUUCGCCGGAUGGCUCCAAA
< 1e-05 s⁻¹: self-cleavage kobs at 40 uM GlcN6P (glucosamine-6-phosphate [1]) | self-cleavage kobs at 160 uM GlcN6P (glucosamine-6-phosphate [4]) | self-cleavage kobs at 640 uM GlcN6P (glucosamine-6-phosphate [2]) | self-cleavage kobs at 10000 uM GlcN6P (glucosamine-6-phosphate [3])

AUAAAAGCGCCAGAACUACAGAAAUGUAGUUGACGAGGAGGAGGUUUAUCGAAUUUUCGCAGGAUGCCUCCAAA
< 1e-05 s⁻¹: self-cleavage kobs at 40 uM GlcN6P (glucosamine-6-phosphate [1]) | self-cleavage kobs at 160 uM GlcN6P (glucosamine-6-phosphate [4]) | self-cleavage kobs at 640 uM GlcN6P (glucosamine-6-phosphate [2]) | self-cleavage kobs at 10000 uM GlcN6P (glucosamine-6-phosphate [3])
